Data: patent publication US12723106 (dated 2026)
Where two headings read alike, the source gives them in different places. One block for each binder: values may come before it.

How the values were obtained:
[1] = molecular target: T1, human IL4 (human, UniProt P05112); assay: SPR
T1 chain: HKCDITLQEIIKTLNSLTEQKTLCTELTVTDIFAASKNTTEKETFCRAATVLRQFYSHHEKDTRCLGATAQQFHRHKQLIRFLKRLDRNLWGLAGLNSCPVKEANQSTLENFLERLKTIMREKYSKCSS

[2] = molecular target: T1, human IL4; assay: SPR

Kd [1]: 2.29 pM
Kd [2]: 2.75 pM
B1: sLC-Tandem-(anti-IL4xanti-IL13)-ΔPCL1-huIgG1, IL4 arm (antibody)
chain 1: not shown
chain 2: DIQMTQSPASLSVSVGDTITLTCHASQNIDVWLSWFQQKPGNIPKLLIYKASNLHTGVPSRFSGSGSGTGFTLTISSLQPEDIATYYCQQAHSYPFTFGGGTKLEIKRTVAAPSVFIFPPSDEQLKSGTASVVCLLNNFYPREAKVQWKVDNALQSGNSQESVTEQDSKDSTYSLSSTLTLSKADYEKHKVYACEVTHQGLSSPVTKSFNRGEC

Kd [1]: 1.53 pM
B2: sLC-Tandem-(anti-IL4xanti-IL13)-His8-PCL1-huIgG1 with Furin, IL4 arm (antibody)
chain 1: not shown
chain 2: B1 chain 2

Kd [1]: 1.05 pM
Kd [2]: 1.33 pM
B3: sLC-Tandem-(anti-IL4xanti-IL13)-PCL2-huIgG1, IL4 arm (antibody)
chain 1: not shown
chain 2: B1 chain 2

Kd [1]: 2.32 pM
B4: Tandem-(anti-IL4xanti-IL13)-huIgG1, IL4 arm (antibody)
chain 1: not shown
chain 2: B1 chain 2

Kd [1]: 1.86 pM
B5: sLC-Tandem-(anti-IL4xanti-IL13)-His8-PCL1-huIgG1 with Furin-KDEL, IL4 arm (antibody)
chain 1: not shown
chain 2: B1 chain 2

Kd [1]: 0.901 pM
Kd [2]: 1.42 pM
B6: sLC-Tandem-(anti-IL4xanti-IL13)-PCL1-huIgG1, IL4 arm (antibody)
chain 1: not shown
chain 2: B1 chain 2
